Variants at the floor of the assay were thinned out.
B1: TPR 5TU (parent)
chain: GGAUCUUCUCGAUCUAACAAAAAAGACAAAUCUGCCACAAAGCUUGAGAGCAUCUUCGGAUGCAGAGGCGGCAGCCUUCGGUGGCGCGAUAGCGCCAACGUUCUCAACUAUGACACGCAAAACGCGUGCUCCGUUGAAUGGAGUUUAUCAUG

Variants of: B1
Assay: polymerase ribozyme fitness, log enrichment relative to wild type (log ratio); higher = more active; in vitro selection for triplet polymerase activity
Outline: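 Input and output libraries were sequenced on Illumina after a single in vitro selection round, run in triplicate on PCR-built, transcribed mutant libraries of each subunit of a heterodimeric triplet polymerase ribozyme. Selection annealed libraries to a biotinylated primer, the partner subunit and triplets, incubated them frozen at −7 °C, then gel-excised extended constructs for streptavidin-bead capture and RT-PCR. Genotypes with ≥10 input reads and ≥1 read per output were kept. Fitness is the logarithm, taken in base 2, of genotype enrichment divided by wild-type enrichment, using inverse-variance-weighted replicate averages.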

Row | Variant | polymerase ribozyme fitness (log ratio)
1 | C54G U55A G94U A98C U146G | -3.37
2 | U53G A113U | -3.16
3 | U53G C57A C85U A115U A121C | -2.93
4 | U53A G83A C114U | -3.28
5 | C54G U56A C57A G81U C93U | -0.912
6 | U53A G80C G143U | ≤ -4.2
7 | C54A C99U | -1.85
8 | C54G A60G G81A C93G C118U | ≤ -4.2
9 | C54A U61A C69U C125A | ≤ -4.2
10 | U53A U135A | -1.55
11 | U53A C132U U146G | -3.87
12 | U53A C96U C105G G112C U146C | ≤ -4.2
13 | U53A U56A G152A | -4
14 | U53A G143A U146C | -2.83
15 | U53C A64G U90C G117C | ≤ -4.2
16 | U53A U55G | -3.97
17 | U53A G70C C114A | ≤ -4.2
18 | C54G U55G | ≤ -4.2
19 | C54A G84A A142C | -4.19
20 | C54U C63A C149U | -1.67
21 | U53A C123U | -0.0861

Row | Variant | polymerase ribozyme fitness (log ratio)
22 | C54G C96A | -2.41
23 | C54G C96U | -1.33
24 | C54A G81C | -0.408
25 | U53A C93A C99U G141U | ≤ -4.2
26 | U53A G81A C85A C131U | -4.19
27 | U53A G92A | -3.87
28 | U53C G74A C76G C96U A110U | ≤ -4.2
29 | C54U A60U C87U G94U U101G U109C C116U C118U G152C | ≤ -4.2
30 | U53A G59A G84U | -1.32
31 | C54G G58C A122G G124U | -2.2
32 | C54A A66G A91G C95G G141A G143U U146C | ≤ -4.2
33 | U53G U135C | -3.23
34 | C54A U55G G83A U102C C108G G126A | ≤ -4.2
35 | C54G G84U | -1.6
36 | U53G G92U G143U U144A | -3.84
37 | U53G C87U A113U C116A G140U | ≤ -4.2
38 | U53A U61A U109G | -2.25
39 | C54A A91G | -3.97
40 | C54A A91U | ≤ -4.2
41 | U53G C118U | -1.68
42 | U53A G94A | -1.61

Row | Variant | polymerase ribozyme fitness (log ratio)
43 | C54U A91U U102G | ≤ -4.2
44 | U53A G81A C95U A120C U144G | -1.05
45 | U53A C87U | -0.931
46 | U53A U78C U90G C96G | ≤ -4.2
47 | C54A U144G | -0.801
48 | C54G C87A | ≤ -4.2
49 | C54G C87U | -3.59
50 | C54G C85U C99G | -3.45
51 | U53A G83C C95U A97C G100A C116G | ≤ -4.2
52 | U53A C118G U144C | -1.81
53 | C54A G80A C103G A110U A120U C132G | ≤ -4.2
54 | U53A C96A C129G | -3.82
55 | U53G G71C G86A G143U | ≤ -4.2
56 | C54G C57A G74A A91C C95U C132A | ≤ -4.2
57 | C54U C57U G83C | -1.34
58 | U53G U55A C79U G86A G88A C103U U148C | ≤ -4.2
59 | C54G A64G A106U A107C U148A | ≤ -4.2
60 | C54A G94U C123G C125A U134C | -3.75
61 | U53A U55G C57A | 0.733
62 | C54A A97U | -1.79
63 | C54U A121U | 0.0158

Row | Variant | polymerase ribozyme fitness (log ratio)
64 | C54A C85A C105A | ≤ -4.2
65 | U53C C69U C75A C93U A115C | ≤ -4.2
66 | C54A C87U | -3.48
67 | C54A C87A | -4.19
68 | U53A C99U C116U | -1.7
69 | C54A C96G | -1.71
70 | C54G C96U A98G | -1.19
71 | U53G C96G U144C | -3.23
72 | C54A U61G | -1.82
73 | C54G G83U C108U A115G G143A | ≤ -4.2
74 | C54A C99A G141U | -2.47
75 | U53A U148G | -4.01
76 | U53C G94C A98C U148G | ≤ -4.2
77 | C54U A73G | -0.166
78 | U53A G84C C99A U111A | ≤ -4.2
79 | U53G A110G G117A U148A | ≤ -4.2
80 | C54U A91G G128U C131U | -3.53
81 | C54A C125U | -3.73
82 | C54G C95U | -2.35
83 | C54G C95A | -1.74

From the RNAGym collection of RNA variant scans (doi:10.1073/pnas.2313332121)
